{
  "source": "patent US20110237779A1",
  "target": "human IgE (human) (UniProt P01854)",
  "sequence (P01854 other isoform, or with tags, fused parts or gaps)": "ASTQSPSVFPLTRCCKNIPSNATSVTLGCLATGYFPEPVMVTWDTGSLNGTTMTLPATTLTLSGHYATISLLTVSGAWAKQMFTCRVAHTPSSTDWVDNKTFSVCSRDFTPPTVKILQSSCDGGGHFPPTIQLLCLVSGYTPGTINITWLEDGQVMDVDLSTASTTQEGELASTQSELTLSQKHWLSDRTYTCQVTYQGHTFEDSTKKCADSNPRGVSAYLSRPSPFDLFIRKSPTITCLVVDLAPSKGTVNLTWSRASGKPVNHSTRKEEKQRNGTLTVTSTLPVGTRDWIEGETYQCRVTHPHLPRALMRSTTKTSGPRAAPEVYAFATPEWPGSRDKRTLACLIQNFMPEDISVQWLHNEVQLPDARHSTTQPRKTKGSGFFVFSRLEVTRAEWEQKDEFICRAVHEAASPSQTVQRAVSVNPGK",
  "test": "phage ELISA, solution competition: Fab-phage incubated with serially diluted IgE, unbound phage captured on IgE-coated wells; IC50 used as affinity estimate",
  "data": [
    {"substance": "Mae11-based hypervariable region graft with S34K and W35L in CDR-H1 of the VH domain (Fab displayed on phage)", "values": [
      {"measurement": "IC50", "result": 4, "unit": "nM"}
    ]}
  ]
}
